For assay [1], the target named is T1, peptide 8 (12 mer from the 2nd extracellular loop of human C5aR) (human).
T1 construct: worked out from 22 12 mers offset by one over 173-205; also called peptide no
T1 peptide: Biotin-SGSGEYFPPKVLCGVD
As to the kind of experiment: peptide ELISA, biotin peptide on streptavidin plate. The source says: (§1) A set of 22 overlapping peptides (12 mers), each offset by 1 residue from the next, spanning the second extracellular loop (3rd extracellular domain) of human C5aR was synthesised (Mimotopes, Melbourne). Each peptide was made with a biotin group and 4-amino acid linker (SGSG) at its N-terminus. One peptide synthesised, no. 23, was a 33 mer, representing the full length of the 2nd extracellular loop of hC5aR (residues 173-205 from SEQ ID NO:37), also had biotin-SGSG at the N-terminus.
(§2) The experiment was conducted by binding the peptides to a 384-well streptavidin-coated plate then incubating the antibodies with the peptides and detecting bound antibody with an anti-mouse IgG conjugated to horse radish peroxidase (HRP) as follows. Each peptide was dissolved in 200 μl of 60% DMSO to a concentration of 10 mg/ml. Peptides were further diluted 1:1000 to a working strength of 10 μg/ml with PBS/Tween 20/azide solution (0.1% w/v sodium azide in PBS/0.05% Tween 20).
(§3) A 384 well streptavidin-coated plate (Nunc) was blocked with 20 μl of blocking buffer (1% w/v BSA in PBS) per well. The plate was washed 4 times with PBS/Tween20 buffer (0.1% v/v Tween 20 in PBS). 20 μl of diluted peptide solution was transferred into a well and the plate incubated for 1 hour at room temperature. After washing the plate 4 times (as above) 20 μl antibody (0.5, 1, 1.25, 2.5 or 5 μg/ml) was added to the well and the plate was incubated for 1 hour at 20° C. The plate was washed 4 times as above then 20 μlHRP-conjugated anti-mouse IgG (1:5000 dilution in PBS/Tween 20) was added to each well. After a 1 hour incubation at room temperature the plate was washed 3 times (as above) then twice with PBS to remove traces of Tween. The presence of peroxidase was detected by adding 20 μl of freshly prepared TMB Substrate reagent (BD Opt EIA) to each well and incubating at room temperature for 20 min. Finally the plate was read at 650 nm/450 nm.
For orientation: ELISA stands for enzyme-linked immunosorbent assay.

Assay [2] has as its target T2, peptide 10 (12 mer from the 2nd extracellular loop of human C5aR) (human).
T2 construct: worked out from 22 12 mers offset by one over 173-205; also called peptide no; 10
T2 peptide: Biotin-SGSGFPPKVLCGVDYS
The description is as above.
Excerpt: as §1, §2, §3

Assay [3] concerns the target T3, peptide 11 (12 mer from the 2nd extracellular loop of human C5aR) (human).
T3 construct: worked out from 22 12 mers offset by one over 173-205; also called peptide no; 11
T3 peptide: Biotin-SGSGPPKVLCGVDYSH
The description is as above.
Excerpt: as §1, §2, §3

Assay [4] deals with T4, peptide 15 (12 mer from the 2nd extracellular loop of human C5aR) (human).
T4 construct: worked out from 22 12 mers offset by one over 173-205; also called peptide no; 15
T4 peptide: Biotin-SGSGLCGVDYSHDKRR
The description is as above.
Excerpt: as §1, §2, §3

Assay [5] deals with T5, peptide 16 (12 mer from the 2nd extracellular loop of human C5aR) (human).
T5 construct: worked out from 22 12 mers offset by one over 173-205; also called peptide no; 16
T5 peptide: Biotin-SGSGCGVDYSHDKRRE
Described as above.
Excerpt: as §1, §2, §3

The target of assay [6] is T6, peptide 18 (12 mer from the 2nd extracellular loop of human C5aR) (human).
T6 construct: worked out from 22 12 mers offset by one over 173-205; also called peptide no; 18
T6 peptide: Biotin-SGSGVDYSHDKRRERA
Described as above.
Excerpt: as §1, §2, §3

The target in assay [7] is T7, peptide 21 (12 mer from the 2nd extracellular loop of human C5aR) (human).
T7 construct: worked out from 22 12 mers offset by one over 173-205; also called peptide no; 21
T7 peptide: Biotin-SGSGSHDKRRERAVAI
The assay is described as above.
Excerpt: as §1, §2, §3

A further assay deals with T8, human C5a receptor (human, UniProt P21730 1-350).
T8 construct: On human neutrophils, L1.2/hC5aR transfectants or neutrophils of hC5aR knock-in mice; also called hC5aR; C5aR1
T8 chain: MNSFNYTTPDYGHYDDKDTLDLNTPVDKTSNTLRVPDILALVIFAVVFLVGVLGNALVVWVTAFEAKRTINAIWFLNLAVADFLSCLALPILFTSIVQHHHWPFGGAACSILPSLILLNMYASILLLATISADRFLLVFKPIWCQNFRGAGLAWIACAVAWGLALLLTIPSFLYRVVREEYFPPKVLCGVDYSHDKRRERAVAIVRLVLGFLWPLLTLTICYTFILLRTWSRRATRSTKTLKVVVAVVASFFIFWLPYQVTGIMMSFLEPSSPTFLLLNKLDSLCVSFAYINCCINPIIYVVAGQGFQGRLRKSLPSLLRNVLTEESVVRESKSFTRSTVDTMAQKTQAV
As to the kind of experiment: 125I-C5a displacement, L1.2/hC5aR transfectants. The method, then: The ability of humanized Abs to inhibit ¹²⁵I-labelled C5a binding to L1.2 cells transfected with hC5aR gene or human neutrophils was tested as described below. Recombinant human C5a was obtained from Sigma Chemical Co. (St. Louis, Mo.). ¹²⁵I-Bolton-Hunter-labelled complement C5a was purchased from NEN-Dupont (Boston, Mass.), with a specific activity of 2200 Ci/mM. Briefly, L1.2/hC5aR stable transfectants were grown for several days prior to an experiment then treated overnight with 5 mM butyric acid to stimulate hC5aR expression prior to the binding assay. Human neutrophils were purified from venous blood collected from healthy volunteers. Neutrophils were separated from other leukocytes by percoll density centrifugation followed by a red blood cell lysis step. Both cell types were washed once in PBS and resuspended in binding buffer (50 mM Hepes, pH 7.5, 1 mM CaCl₂, 5 mM MgCl₂, 0.5% BSA) at a concentration of 1×10⁷/ml. Aliquots of 40 μl (4×10⁵ cells) were dispensed into 96 well microtitre plates, followed by the addition of cold competitor (antibody or human C5a). Cells and cold competitor were incubated for 15 min at room temperature before-radiolabelled C5a was added to a final concentration of 0.4 nM. The final reaction volume was 120 μl. After 60 min incubation at room temperature, the cells were washed three times with 150 μl of binding buffer containing 0.15 M NaCl. Cell pellets were then counted on a TopCount Scintillation Counter (Packard). Samples were assayed in triplicate at each of 6-8 concentrations. Each antibody was tested in at least 3 separate assays. The number of counts in each sample was expressed as a percentage of the maximum ¹²⁵I-C5a binding observed in wells with no added cold competitor after subtraction of background.
Results of this analysis (the displacement curves) for each of the humanized antibodies compared to the mouse antibody 7F3 in human neutrophils and L1.2/hC5aR transfectants are given in FIGS. 11 and 12 respectively. […] These values were obtained using Graphpad Prism software fitting the data to the non-linear equation for one site competition.

No end group written: not given here. *: point of attachment. Biotin = O=C1N[C@H]2[C@H](CS[C@H]2CCCCC(=O)*)N1

B1: humanized anti-C5aR antibody hAb-J (antibody, human IgG4 S228P, kappa)
light: DVVMTQSPLSLPVTLGEPASISCRSSQSLVHSNGNTYLHWYLQKPGQSPQLLIYKVSNRFSGVPDRFSGSGSGTDFTLKISRVEAEDVGVYFCSQSTLVPLTFGQGTKLEIKTVAAPSVFIFPPSDEQLKSGTASVVCLLNNFYPREAKVQWKVDNALQSGNSQESVTEQDSKDSTYSLSSTLTLSKADYEKHKVYACEVTHQGLSSPVTKSFNRGEC
heavy: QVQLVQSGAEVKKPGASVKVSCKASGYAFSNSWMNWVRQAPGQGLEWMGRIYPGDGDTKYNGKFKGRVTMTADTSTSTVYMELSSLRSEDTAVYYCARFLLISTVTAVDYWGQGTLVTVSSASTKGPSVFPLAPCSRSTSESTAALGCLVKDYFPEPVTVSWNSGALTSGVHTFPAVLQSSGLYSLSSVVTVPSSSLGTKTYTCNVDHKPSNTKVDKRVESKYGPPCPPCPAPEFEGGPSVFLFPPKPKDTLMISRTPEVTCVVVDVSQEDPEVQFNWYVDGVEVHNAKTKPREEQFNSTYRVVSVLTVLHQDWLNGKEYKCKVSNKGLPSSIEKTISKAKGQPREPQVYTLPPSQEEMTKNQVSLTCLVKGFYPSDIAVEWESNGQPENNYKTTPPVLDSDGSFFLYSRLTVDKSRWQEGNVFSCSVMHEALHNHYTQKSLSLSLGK
notes: also called antibody J
One may read the EC50 as the midpoint of the concentration-response curve. A high value points to a less potent agent. Consider B1, for which the binding result in assay [1], in assay [2], in assay [3], in assay [4], in assay [5] and in assay [6] was “no binding” each time. In addition, in assay [7], the binding result was “no binding”. The EC50 with human C5a receptor is 0.93 nM.

B2: mouse anti-C5aR monoclonal antibody 7F3 (antibody, V domains shown)
VH: QVQLQQSGPELVKPGASVKISCKASGYAFSNSWMNWVKQRPGKGLEWIGRIYPGDGDTKYNGKFKGKATLTADKSSSTAYMQLSSLTSEDSAVYFCARFLLISTVTAVDYWGQGTTLTVSS
VL: DVVMTQSPLSLPVSLGNQASISCRSSQSLVHSNGNTYLHWYLQKPGQSPKLLIYKVSNRFSGVPDRFSGSGSGTDFSLKISRVEAEDLGVYFCSQSTLVPLTFGAGTKLELK
notes: Mouse monoclonal from hybridoma ECACC 00110609; also called m7F3; mouse 7F3
With B2, the binding result in assay [1], in assay [2], in assay [3], in assay [4], in assay [5] and in assay [6] was “no binding” throughout. In assay [7], the binding result is on record as “no binding”. Further, the EC50 with human C5a receptor stood at 0.51 nM.

B3: humanized anti-C5aR antibody hAb-Q (antibody, human IgG4 S228P, kappa)
light: DVVMTQSPLSLPVTLGEPASISCRSSQSLVHSNGNTYLHWYLQKPGQSPQLLIYKVSNRFSGVPDRFSGSGSGTDFTLKISRVEAEDVGVYFCSQSTLVPLTFGQGTKLEIKRTVAAPSVFIFPPSDEQLKSGTASVVCLLNNFYPREAKVQWKVDNALQSGNSQESVTEQDSKDSTYSLSSTLTLSKADYEKHKVYACEVTHQGLSSPVTKSFNRGEC
heavy: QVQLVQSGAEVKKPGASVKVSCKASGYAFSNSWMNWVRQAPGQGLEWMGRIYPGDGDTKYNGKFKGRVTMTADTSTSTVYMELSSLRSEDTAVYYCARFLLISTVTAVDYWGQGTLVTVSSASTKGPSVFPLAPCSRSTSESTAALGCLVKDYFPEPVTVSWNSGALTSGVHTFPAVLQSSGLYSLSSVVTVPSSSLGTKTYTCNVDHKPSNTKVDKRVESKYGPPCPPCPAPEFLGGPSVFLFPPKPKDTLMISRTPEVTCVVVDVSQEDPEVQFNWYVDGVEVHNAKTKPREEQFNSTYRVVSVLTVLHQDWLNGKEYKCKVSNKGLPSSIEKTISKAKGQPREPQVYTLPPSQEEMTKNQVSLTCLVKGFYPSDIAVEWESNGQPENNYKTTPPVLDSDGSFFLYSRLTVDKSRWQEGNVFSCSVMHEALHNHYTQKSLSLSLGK
notes: IgG4 with the Ser228Pro mutation; also called antibody Q; anti-C5aR ab
Regarding B3, the binding result in assay [1], in assay [2], in assay [3], in assay [4], in assay [5] and in assay [6] was “no binding” throughout. For the same molecule, the binding result in assay [7] is reported as “no binding”. The molecule further returned an EC50 with human C5a receptor of 0.86 nM.

Values taken from patent US20110190477A1 (G2 INFLAMMATION, published 2011).
